Tests used:
[1] = target: T1, recombinant human TIGIT extracellular domain (ECD) (human, UniProt Q495A1 22-138); assay: blocking ELISA, competitor PVR
T1 construct: also called h-TIGIT ECD; recombinant human TIGIT ECD
T1 sequence: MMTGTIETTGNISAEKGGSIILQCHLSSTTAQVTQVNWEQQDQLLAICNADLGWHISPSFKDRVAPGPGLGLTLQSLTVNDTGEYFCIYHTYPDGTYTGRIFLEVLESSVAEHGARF
Description: The effects of VHH antibody clones on blocking Poliovirus Receptor (PVR, a.k.a. CD155) binding to TIGIT were also determined using blocking ELISA assay.

[2] = target: T2, human TIGIT expressed on cells (stably transfected Jurkat cells) (human, UniProt Q495A1 22-244); assay: flow cytometry on h-TIGIT transfected Jurkat cells, anti-human IgG Fc Alexa Fluor 488
T2 construct: Also used here for TIGIT on primary T cells in the MLR; also called h-TIGIT; T cell immunoreceptor with Ig and ITIM domains
T2 sequence: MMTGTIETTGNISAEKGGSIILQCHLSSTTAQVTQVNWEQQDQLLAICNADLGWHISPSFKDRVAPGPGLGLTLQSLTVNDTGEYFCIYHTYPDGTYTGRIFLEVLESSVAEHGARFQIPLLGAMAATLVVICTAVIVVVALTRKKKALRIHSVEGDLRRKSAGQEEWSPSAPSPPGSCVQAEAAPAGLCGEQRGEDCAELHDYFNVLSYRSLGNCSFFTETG
Text: FIGS. 1A-1C depict whole cell binding of representative VHH bivalent antibodies to human TIGIT determined by flowcytometry assays. […] Y axis represents Mean Fluorescence Intensity of AlexaFlour 488. X axis represents antibody concentrations in nanomolar. 2B7, 1G1, 1C12, 3G6, 2B10, 3G7, 3G10, 13H11, and 15A5 are VHH clones of anti-human TIGIT. FIG. 1C is a schematic of the structure of a TIGIT VHH bivalent antibody.
Binding affinities of the bivalent clones to human TIGIT transfected Jurkat cells were confirmed by flowcytometry assays. Jurkat cells stably expressing human TIGIT and NFAT reporter gene were established. Specifically, Jurkat cells were transfected with human TIGIT expression vector by electroporation, and cells stably expressing human TIGIT were selected by 1 μg/ml puromycin during cell culture. Representative antibody clones were incubated at different concentrations with h-TIGIT stably expressing Jurkat cells (0.2×10^6/ml) in 100 μl/well in 96-well plate in FACS buffer (PBS with 1.5% FBS) for 30 min. After washing, Alexaflour 488 conjugated anti-human IgG Fc secondary antibody (Alexa Fluor® 488 AffiniPure Goat Anti-Human IgG, Fcγ fragment specific, Jackson labs, 1:500 dilution) was added and incubated for 30 min. After washing, mean fluorescence intensity was measured using CytoFlex (Beckman Coulter) by gating live cell population. Binding affinity was calculated using GraphPad Prism.

[3] = target: T2, human TIGIT expressed on cells (stably …); assay: flow cytometry on h-TIGIT Jurkat cells (% binding) with VHH samples heated for 60 min at 25 to 70 °C
Description: (§1) FIGS. 6A and 6B depict thermostability tested for representative clones. The VHH antibody samples were heated from 25 to 70° C. for 60 min. Binding of heated samples to human TIGIT was examined using ELISA or whole cell binding. […] Y axis represents OD450 obtained from the ELISA assay. X axis represents temperature for the treatment. […] Y axis represents percentage of binding to h-TIGIT. X axis represents temperature for the treatment.
(§2) The thermostability of 12 representative clones was tested by heat treatment at 25 to 70° C. for 60 min, then the binding of the treated samples to human TIGIT was examined using ELISA and whole cell binding flow cytometry assays, the results of which are shown in FIGS. 6A and 6B. […] Bivalent 2A3 antibody (2A3-Fc) was constructed using human IgG1 CH2 and CH3 domains. The antibody was expressed in ExpiCHO cells and purified by protein A column. Epitope of 2A3-Fc binding to human TIGIT was studied using Octet binding assay in comparison with anti-TIGIT reference antibodies Reference Ab 1 and References Ab 2 (a reference anti-human-TIGIT antibody having the same amino acid sequences of Tiragolumab, which was synthesized in-house based on the disclosed sequences in U.S. 2017/0088613 A1). As shown in FIGS. 7A-7C, 2A3 clone bound to a different epitope compared to Reference Ab 1 and Reference Ab 2.

[4] = target: T1, recombinant human TIGIT extracellular …; assay: ELISA on h-TIGIT ECD with VHH samples heated for 60 min at 25 to 70 °C
Description: as §1, §2

[5] = target: T2, human TIGIT expressed on cells (stably …); assay: whole cell binding, flow cytometry

B1: 3F10 VHH (VHH)
VHH: QVQLVESGGGLVQAGGSLRLSCASSEHTFSNFPMGWFRQAPGKERNVVAAIDSSGRLTYYADSVKGRFTISKDNAKSTVYLQMNSLKSEDTARYYCAARTGGVGYYSRSSFYNYWGQGTLVTVSS
notes: VHH in E. coli supernatant
[1]
  inhibition of PVR binding to h-TIGIT: > 90%

B2: 2B10 VHH (VHH)
VHH: QVKLEESGGGLVQTGDSLRLSCAASSRIFRRYAMGWFRQAPGKEREFVAAITWSGASTTYTDSVKGRFTISRDSAENTTYLQMTSLRPEDTAVYYCAADPWGSVIVGTAEYEYWGQGTLVTVSS
notes: VHH in E. coli supernatant
[1]
  inhibition of PVR binding to h-TIGIT: > 90%

B3: 1C12 VHH (VHH)
VHH: QVQLVESGGGLVQTGDSLRLSCAASSRIFSRYGMGWFRQAPGKEREFVAAISWNGASTTYTDSVKGRFTISRDSAENTTYLQINSLRPEDTAVYYCAADPWGAVKLGTAEYEYWGQGTQVTVSS
notes: VHH in E. coli supernatant
[1]
  inhibition of PVR binding to h-TIGIT: > 90%

B4: 13H11 bivalent VHH antibody (Fc fusion, not shown: small tags and cut ends)
chain: QVQLVESGGGLVQAGGSLRLSCAASGLTFSMYAMGWFRQGPGKERESVAAISSDGRFTYYAASVKGRFTISKDNAKSAAFLQMNSLKPEDTAVYYCAARDSGSGYYSRAQWYDYWGQGTQVTVSS
[2]
  EC50 (read off the curve): ~0.2 nM

B5: 13H11 VHH (VHH)
VHH: QVQLVESGGGLVQAGGSLRLSCAASGLTFSMYAMGWFRQGPGKERESVAAISSDGRFTYYAASVKGRFTISKDNAKSAAFLQMNSLKPEDTAVYYCAARDSGSGYYSRAQWYDYWGQGTQVTVSS
notes: VHH in E. coli supernatant
[1]
  inhibition of PVR binding to h-TIGIT: > 90%

B6: 2B7 VHH (VHH)
VHH: QVQLVESGGGLVQAGGSLRLACAASGRTFSSYPMGWFRQGPGKERESVAAISSDGRFTYYAASVKGRFTISKDNAKSAAFLQMNSLKPEDTAVYYCAARDSGSGYYSRAQWYDYWGQGTQVTVSS
notes: VHH in E. coli supernatant
[1]
  inhibition of PVR binding to h-TIGIT: > 90%

B7: 1G1 VHH (VHH)
VHH: QVQLVESGGGLVQAGDSLRLSCVASGPSFSSYPMGWFRQGPGKERESVAAISSDGRFTYYAASVKGRFTISKDNAKSAAFLQMNSLKPEDTAVYYCAARDSGSGYYSRAQWYDYWGQGTLVTVSS
notes: VHH in E. coli supernatant
[1]
  inhibition of PVR binding to h-TIGIT: > 90%

B8: 1A8 VHH (VHH)
VHH: QVQLVESGGGVVQPGRSLRLSCAASGPSFSSYPMGWFRQAPGKERESVAAISSRGRFTYYADSVKGRFTISRDNSKNTLYLQMNSLRAEDTAVYYCAARDSGSGYYSRAQWYDYWGQGTLVTVSS
[3]
  binding result: binds
[4]
  binding result: binds

B9: 2A3 ML_DE (hotspot modified 2A3) (VHH)
VHH: QVQLVESGGGVVQPGRSLRLSCAASGGSFSSYPMGWFRQAPGKERESVAAISSDLRFTYYADSVKGRFTISRDNSKNTLYLQMNSLRAEDTAVYYCAARESGVGYYSRAQWYDYWGQGTLVTVSS
[5]
  binding result: binds

B10: 7F6 VHH (VHH)
VHH: QVQLVESGGGVVQPGRSLRLSCAASGPMFSSYPMGWFRQAPGKERESVAAISSDPRFTYYADSVKGRFTISRDNSKNTLYLQMNSLRAEDTAVYYCAARDSGSGYYSRAQWYDYWGQGTLVTVSS
[3]
  binding result: binds
[4]
  binding result: binds

B11: 2A3 MI (hotspot modified 2A3) (VHH)
VHH: QVQLVESGGGVVQPGRSLRLSCAASGGSFSSYPMGWFRQAPGKERESVAAISSDIRFTYYADSVKGRFTISRDNSKNTLYLQMNSLRAEDTAVYYCAARDSGVGYYSRAQWYDYWGQGTLVTVSS
[5]
  binding result: binds

B12: 6F12 VHH (VHH)
VHH: QVQLVESGGGVVQPGRSLRLSCAASGPSFTSYPMGWFRQAPGKERESVAAISSDGRFKYYADSVKGRFTISRDNSKNTLYLQMNSLRAEDTAVYYCAAEDSGSGYYSRAQWYDYWGQGTLVTVSS
[3]
  binding result: binds
[4]
  binding result: binds

B13: 2A3 ML (hotspot modified 2A3) (VHH)
VHH: QVQLVESGGGVVQPGRSLRLSCAASGGSFSSYPMGWFRQAPGKERESVAAISSDLRFTYYADSVKGRFTISRDNSKNTLYLQMNSLRAEDTAVYYCAARDSGVGYYSRAQWYDYWGQGTLVTVSS
[5]
  binding result: binds

B14: 3G6 bivalent VHH antibody (Fc fusion, not shown: small tags and cut ends)
chain: QVQLVESGGGLVQAGGSLSLSCAASGSIFGISVMGWYRQAPGEQRDLVATLTRAGLTTYGDSVKGRFSISRDSAKNTVYLQMNNLKPEDTAVYYCHANIMESAASTFGRYWGQGTQVTVSS
[2]
  EC50 (read off the curve): ~0.8 nM

B15: 3G6 VHH (VHH)
VHH: QVQLVESGGGLVQAGGSLSLSCAASGSIFGISVMGWYRQAPGEQRDLVATLTRAGLTTYGDSVKGRFSISRDSAKNTVYLQMNNLKPEDTAVYYCHANIMESAASTFGRYWGQGTQVTVSS
notes: VHH in E. coli supernatant
[1]
  inhibition of PVR binding to h-TIGIT: > 90%

B16: 15A5 bivalent VHH antibody (Fc fusion, not shown: small tags and cut ends)
chain: QVQLVESGGGLVQAGGSLRLSCAASERTFSSFAMGWFRQAPGKEREVVAAIDPSGRYIYYKDSVKGRFTMSRDNAKSTVYLQMNSLKPDDTARYYCAARIRGEGYYTRSSFYHYWGQGTQVTVSS
[2]
  EC50 (read off the curve): ~0.06 nM

B17: 15A5 VHH (VHH)
VHH: QVQLVESGGGLVQAGGSLRLSCAASERTFSSFAMGWFRQAPGKEREVVAAIDPSGRYIYYKDSVKGRFTMSRDNAKSTVYLQMNSLKPDDTARYYCAARIRGEGYYTRSSFYHYWGQGTQVTVSS
notes: VHH in E. coli supernatant
[1]
  inhibition of PVR binding to h-TIGIT: > 90%

B18: 3G7 VHH (VHH)
VHH: QVQLVESGGGLVQAGDSLRLSCEASGRTLSTYTMGWFRRAPGKEREFVGLAWPSPSTYVVDSVKGRFTISRDNAKNTIYLQMNSLKPEDTAIYYCAADYKSLTQSWLNAALDYWGQGTQVTVSS
notes: VHH in E. coli supernatant
[1]
  inhibition of PVR binding to h-TIGIT: > 90%
